According to patent US10393755B2, “Compositions and methods for treating eye infections and disease” (UNIVERSITY OF VIRGINIA PATENT FOUNDATION, priority 2014, dated 2019):

Key:
HCE-T cells = experiment: FOXO3 translocation assay in IFNG/TNF stressed HCE-T cells; type: cell-based, human; settings: dry eye tears 1:100, 10 nM, 15 min
Procedure: For FOXO3 translocation assays, HCE-T cells were grown in triplicate to subconfluence (˜50%) on coverslips in α-MEM (5.54 mm glucose), sensitized overnight in IFNG (100 units/ml; Roche Applied Science), and treated for 15 min with normal or dry eye tears diluted 1:100 in α-MEM together with TNF (50 ng/ml; PeproTech, Rocky Hill, N.J.) without or with 10 nm lacritin or C-25. Cells were washed, fixed with 4% paraformaldehyde, and immunostained for FOXO3 (1:200; Millipore, Billerica, Mass.) followed by goat anti-rabbit secondary antibody and visualization on a Zeiss LSM 700 microscope.

[1] = test system: primary human corneal epithelial cells; experiment: FOXO3 translocation in INFG/TNF stressed primary human corneal epithelial cells; type: cell-based
Aire(−/−) dry eye mice = experiment: Topical treatment of Aire(-/-) dry eye mice; type: in vivo, mouse
Procedure: Autoimmune regulator (Aire)-deficient [Aire^−/−] mice spontaneously develop dry eye without need for dry chambers or scopolamine Aire^−/− mice were dosed three times daily for three weeks with 10 μl of 50 μg/mllacritin, or in controls with PBS. Several different assays monitored the consequences. […] Topical lacritin reduced CD4+T cell infiltration into lacrimal glands measured as the number of lymphocytic foci/per millimeter square area of lacrimal gland tissue (3.68±0.65 per mm sq lacritin vs. 9.7+1.5 per mm sq PBS; P=0.01), but had no apparent effect on the pattern or distribution of CD4+T cells into either the corneal stroma (14.6±1.6 lacritin vs 12.4±2.1 PBS) or the limbus (29.6±2.5 lacritin vs 34.6±2.9 PBS.
To assess ocular surface mucosal damage from dry eye, eyes of Aire(−/−) dry eye mice were topically administered lissamine green that increasingly stained PBS-treated eyes with time (See FIG. 4C). […] Thus, topical lacritin, and its bioactive fragments thereof, diminished lacrimal gland inflammation and corneal staining in dry eye, and promoted ocular surface differentiation. Importantly, suppression of inflammation and promotion of tearing was achieved without direct contact with inflammatory cells nor with tear producing cells.

corneal sensory nerves = experiment: Corneal sensory nerve activity monitored at the trigeminal ganglion; type: in vivo, rat
Description: Topical lacritin stimulates tearing even without physical access to lacrimal acinar cells. The rapidity of the response is in keeping with corneal sensory nerve activation. Individual corneal sensory nerve activity was monitored at the level of the trigeminal ganglion in rats via previously described methods. Emerging from these studies was the observation that topical lacritin is neural stimulatory. […] The ‘dry response’ refers to neural activation as a consequence of drying of the cornea, which is thought to be a critical TRPM8-mediated stimulus for tearing, while the ‘wet response’ occurs when the agonist is present at the corneal nerve terminals. […] Apparent inhibition of the action potentials by lacritin during wet cornea was small because the TRPM8 activity during wet cornea is low to begin with, while it reaches optimal level during dry cornea when dynamic cooling of the ocular surface is taking place. Lacritin may also increase TRPM8 neural density.

[2] = type: in vitro ADME, human
Procedure: A limitation of most synthetic peptide drugs is their protease sensitivity. […] Retropepsin would inactivate LACRIPEP, while cathepsin K would have no effect. However neither protease is found in normal human tears. Nonetheless, tears are rich in other proteases. We therefore incubated LACRIPEP in normal human tears at 37° C. for 2, 4, 6 and 16 hr. For immunoblotting, we first removed all endogenous lacritin by immunodepletion. […] (FIG. 6B).

E. coli = experiment: Lacritin inhibition (colony count) assay, E. coli; type: cell-based; settings: 2 uM, mid-log E. coli
Procedure: (§1) Bacterial Growth, SYTOX Green Assays, and on Column Cleavage—E. coli (ATCC (Manassas Va.) catalog no. 10536), S. epidermidis (ATCC catalog no. 12228), and P. aeruginosa (ATCC catalog no. 9027) were grown to mid-log phase in 50 ml of Luria-Bertani (LB) medium and washed three times in phosphate buffer containing 10 mM NaCl (pH 7.2; PB—NaCl) with centrifugation. Pellets were resuspended in 1 ml of PB—NaCl.
(§2) For lacritin inhibition assays, 50 ul of bacterial pellets each diluted 1:100 in PB—NaCl were incubated for 1.5 h (37° C.) with 100 ul of lacritin, lacritin truncations, or synthetic peptides at a final concentration of 0.1-6 uM. Mixtures were diluted 1:10 in PB—NaCl before plating 100 ul in quadruplicate on LB agar plates for overnight growth at 37° C. Colonies were manually counted. In other experiments, mid-log E. coli was treated at 37° C. for 0, 1, 2, or 3 h with 2 uM lacritin or lacritin truncations or with ampicillin (5 uM) or tetracycline (2 uM). After each treatment, 100 ul was centrifuged, resuspended in 1 ml of PB—NaCl, and plated (100 ul) onto LB agar for overnight growth (37° C.) and colony counting.

P. aeruginosa = experiment: Lacritin inhibition (colony count) assay, P. aeruginosa; type: cell-based; settings: 2 uM, mid-log P. aeruginosa
Procedure: as §1, §2

S. epidermidis = experiment: Lacritin inhibition (colony count) assay, S. epidermidis; type: cell-based; settings: 2 uM, mid-log S. epidermidis
Procedure: as §1, §2

bacteria = experiment: Lacritin inhibition (colony count) assay, bacterium not given; type: cell-based; settings: whole protein
Procedure: as §1, §2

basal tearing = settings: Sumadre et al. 2011, cited from earlier work

B1: lacritin: 12.3 kDa secreted tear glycoprotein; recombinant, generated in Escherichia coli (protein, listed as Homo sapiens)
chain: MKFTTLLFLAAVAGALVYAEDASSDSTGADPAQEAGTSKPNEEISGPAEPASPPETTTTAQETSAAAVQGTAKVTSSRQELNPLKSIVEKSILLTEQALAKAGKGMHGGVPGGKQFIENGSEFAQKLLKKFSLLKPWA
FOXO3 translocation to the cytoplasm by dry eye tears spiked with the substance (HCE-T cells): translocated FOXO3 to the cytoplasm
FOXO3 translocation [1]: translocated FOXO3
Keratin 10 levels (skin epidermal marker) (Aire(−/−) dry eye mice): diminished levels
Keratin 12 expression (corneal marker) (Aire(−/−) dry eye mice): 80.1±4.8%
Lissamine green staining (Aire(−/−) dry eye mice): −0.417±0.06
Lymphocytic foci per millimeter square area of lacrimal gland tissue (CD4+T cell infiltration) (Aire(−/−) dry eye mice; three times daily for three weeks, 10 μl of 50 μg/ml): 3.68±0.65 per mm sq
CD4+T cells in corneal stroma (Aire(−/−) dry eye mice; three weeks): 14.6±1.6
CD4+T cells in limbus (Aire(−/−) dry eye mice; three weeks): 29.6±2.5
Corneal neuron activity immediately after application (corneal sensory nerves; 10 μM, from ˜12 before): ~8 spikes/s
Wet response after 1 hr and washout (corneal sensory nerves; 10 μM, from ˜12 before): ~16 spikes/s
Dry response after 1 hr and washout (corneal sensory nerves; 10 μM, from ˜20 before): ~23 spikes/s
Neural dry response (corneal sensory nerves; topical): enhanced
Cross-linking of monomer spiked into immunodepleted tears [2]: formed dimers, trimers and tetramers
Appearance of colonies (E. coli): no effect on the appearance of colonies
Appearance of colonies (P. aeruginosa): no effect on the appearance of colonies
Appearance of colonies (S. epidermidis): no effect on the appearance of colonies
Bactericidal activity (bacteria): does not have bactericidal activity
Tolerability of multiple doses per day (basal tearing): well tolerated
Increase of basal tearing over vehicle (basal tearing; acute): 30%
